# From the DeepSol protein solubility set
# Assay: soluble on expression in E. coli; label from the status in PepcDB or PDB records
row,Sequence,soluble on expression in E. coli
1,MAEHECVQLVPIFSELGSEQLDIIESIVRHHHYPAGSTLFGADDPLDSLMIVANGQVKVYQLAANGREQLLYLLQTGDIDGEAALFENQRRTSFGEALVPTDVCSIRRSDFQDLMQKYPSISINVLNVFGKRLNQLERQTTSTATESVEARLANYITETAAALKTDTFKLPLKKKDLATFLGTTPESISRKLALFERQGLITQKPGKVIEINDADQLLLTE,soluble
2,MSLERTTHQSLNGSWQFQPVAATLHVTPQLQAPAGGWKKINVPDNWYRQGHDISGYAWYQTRFALDAHNASRVAHLVFHGVDYSADVWLNDRYLGHHTGYFQPFEFDVTGLVKPGENQLRVLVNSPLEQPQDWSLHKRLVKGIFSHHDTRPGGAWSERGQEKNTGGIWAPVELQFADRAAVRQLQVTPRKQATEANPQQWVVSTEADIHHDVSHETSVTVEARILPENFKGASFAFKQSQTLQPGGNHIAFSFPVDNPALWWPYEYGHPNLYRLELSVKDASGKLLDQREQVFGVREVKVDDGLQWFINGRRMFLRGTNYIASQWLAEMTPDRYRRDLEMMQAAHINAVRVHAHVTGQDFYELCDRMGILVTQDFPLLWGYSDDPDFIAEARRQAKDMVQLLQRHPSIISWTMHNEPPWDSPWMAQKYPDYHPDINRRLDALLYEDVSKLDTLRVVRKESATKEHEWMGWYFDHWLAFSRPAPTPWSTEFGAQALPNLKSLERMFSKALLWPDTEAKWQVWEYHNFQRKETFEFAGVKQGGNIEEFIANSQHYQARLIQFAVENYRRQRYAPVSAVFQFMFVENWPSINWGIVDYWREPKAGYEALRVAYQPVLPSLEWKQDEYEAGASPRIGLWAINDTWSGFEHASYTVTLYREGKPLDMLKLPLEMLPDSGYKLRDYALPVLEKGQYEIKAEITGQDGKSMGRNQYRFSVKEGHHHHHH,soluble
3,MVVLVTRSLLPALFFASRAPFAAATTSARFQRGLATMAAEAFTKHEVIPDVLASNPPSKVVSVKFNSGVEANLGNVLTPTQVKDTPEVKWDAEPGALYTLIKTDPDAPSRKEPTYREWHHWLVVNIPGNDIAKGDTLSEYIGAGPPPKTGLHRYVYLIYKQSGRIEDAEHGRLTNTSGDKRGGWKAADFVAKHKLGAPVFGNLFQAEYDDYVPILNKQLGA,not soluble
4,MKEAGILFEELVSIMEKLRSPEGCEWDRKQTHESLKPYLIEECYELIEAIDEKNDDMMKEELGDVLLQVVFHAQIARERGAFTIEDVIRTLNEKLIRRHPHVFGDSPGYSYKQWEDIKAQEKGKKKSSRIGEINPLVPALSMARRIQENASQVGFDWKDPEGVYEKIEEELKELKEAKDPRELEEEFGDLLFSIVNLSRFLNVDPESALRKATRKFVERFKKMEELIEKDGLVLEELPIEKLDEYWEKAKGGDET,soluble
5,MVASESILQALQTVIDPNTGKDLVTTRAIRNLEVNGADVTFDAQLGYPAKSQIPALRRALIAAARGVAGVDNVSVNMQSVIETHAVPRGIALLPNVKNVIAVASGKGGVGKSTTAVNLALALAAEGARVGLLDADIYGPSQAQMMGIEGRPQSEDGKTMEPLENYGVQVMSIGFLVDADEAMIWRGPMAVQALEQLLRQTNWKNLDYLVIDMPPGTGDIHLTLSQKVPVTGAVIVTTPQDIALLDARKGVKMFEKVGVPIVGVVENMAVHVCSQCGHAEHIFGQGGGQRMAQDYGLAYLGALPLDINIRQQADGGRPSVVADPDGEVAGLYKDVARQVAVAVAAMGKDYSSKFSSISISRAPAGGAAALEHHHHHH,soluble
6,MAHHHHHHMKHIATQHHRGVVADPQPIHRNTRRAVKVQTRPRDQPRDREAVPADRDVRVRWKITLRAEQRVTKCVTGDDDVQRPHSGVRIAQQQQHGAVPPRASIERDVRHVARHRTNQHRQAHAAPAERHVAVAQPRQPAAHSLRNLGVHHVADALTNRRWRWCGRRWRWRWRRGQWRRASRHRRRDARIAVPSSSALALAANDRRRQRCKAVALLRALPARSNRRHVGDAVELQLCRRRQQTSRDRQAPSNEPVTGVNPR,not soluble
7,MGSDKIHHHHHHMGIGIIIASHGKFAEGIHQSGSMIFGEQEKVQVVTFMPNEGPDDLYGHFNNAIQQFDADDEILVLADLWSGSPFNQASRVAGENPDRKMAIITGLNLPMLIQAYTERLMDAGAGVEQVAANIIKESKDGIKALPEDLNPVEETAATEKVVNALQGAIPAGTVIGDGKLKINLARVDTRLLHGQVATAWTPASKADRIIVASDEVAQDDLRKQLIKQAAPGGVKANVVPISKLIEASKDPRFGNTHALILFQTPQDALRAVEGGVEINELNVGSMAHSTGKTMVNNVLSMDKEDVATFEKLRDLGVTFDVRKVPNDSKKNLFELIQKTNIK,not soluble
8,MRIRLFAFCLLLGGCQSQLPPLPDWQSPEGRDDPQTGRIVELRSGVTLSPQQLVARLAAAPRVIVGEKHDNPDHHAVELWLAQALGEYRAQGSLLLEMLDPGQQPRVDAVRAQLGNGKPVANLEEALDWQKGWDWTQYGPLVSWAVAQPAPLLAANLQRSEIMRIYRERPPLPGTASRRDSVRLPLLAQIRESHCGMLPDDQLPAMLAVQQQRDRRMAERLRDAPRPAMLVAGSFHARRDLGVPVHLRDLGAEKGTQVLMLVEAGQAVTTREADYAWYTPAQPDKDYCAEMKKARLEHHHHHH,not soluble
9,MSSVKDTMTTQVATVSPNQTIQEAASLMKQHNVGAIPVVEQGVLKGMLTDRDIALRTTAQGRDGQTPVSEVMSTELVSGNPNMSLEDASQLMAQHQIRRLPIVDQNNLVGIVALGDLAVNQMSNESAGSALTNISHQNIH,not soluble
10,MPTPEKRLRLMQLASNSLPVGGYSWSQGLEWAVEAGWVEDSAAFEHWQQLQMEQSFFAVDLPLLARLYRACEAGDPDSAGRWTAYLLACRETRELRDEERNRGAAFTRLLVDWQPDCPAEWRKLCQQSQLTGMAWLGVRWQISVSDLALSLGYSWIESAVMAGVRLVPYGQLAAQQLIMRLCARYAANMDSALATPDHAIGSATPLASIASARHETQYSRLFRS,not soluble
11,MPITRTGLPHAVASTSQTQETSQASASQGVLDPGTVPPRRAETFDGLSALPNDLRREIAQRCGPRSLVRLGSVSRQMAEDTRDVRAFLTARPRYDPSLEFGDVHSAESMRVALDEVTHFPYPDDEDRSEQILRGYGRLAARIPSLPQAQRFEAFTAVLNHATRHSGNMAFRVVARLTDDLGCLPEDLRALAFHAILPSLIATRRQALQAAAGAAHVGHIGAVAEADAGGVQGDGEPGPQGAVAPAQGGAAGGIGGALPFNLLASAIRHLPEEAVNLAITEAAALQTGPRLLAEVTLRLHLVGLEPIHRFQQAYAQLAEHLARSGDGAEALTHLVALLNRLPNPGVRQAAFRELTRAVHALDSTESGAAVLRRLAGALPHQPAAVRYLCSLDVLAAAASLFPSEQIPVIAAVRAQAAAIPNQAAELIARCDDAIATASMMLATVSRRYMDM,not soluble
12,MKDDKTILILTAQFGAGHISAAKAVKECIIEKYSNYNVVIQNFINASIPMMNKPMVKLYENNTKYTPGLYNYYYYFKKSFDSRHDLSHKLYTPKLSEYIADINPDLIISTFPLAAACVNNFKIKNPDINIPTLTVITDVVDSMEWVFENTDLYFVPSPEIKNRFFQKGINPDSIKVTGVPLEHHHHHH,not soluble
13,VVIFFGVILGILIVEYGQKRSFSSWLVEKMFAYRKYKLSKKVDNYKGVETQRNRNIPYHLDNPEEIVGFSTQEYDVNGMQVFIINDQKQSHQPVIYYLYGSVYLRRPEKLHFKTVKHLIQLTNAKVVFPNFPKVPYATYQDVYPKLVEAYQQFCLSNGPSQVSVIGDSSGGGMALAFAKYIRDTKTAPQPKQLILISPWLDVSFKNQAYKDFEAEEAYLDARRLRDIGELWAGGQGNMQLPYVSPLYGDYEDLPEITTFVGTKEIFYPDIMSLHDQLTRQRIANQLIIAEKMIHAYVIFPIREAKQARKQIAELVLKTVEHT,not soluble
14,MGSDKIHHHHHHMTNTFSFDWAIAPETPDTFFAEYFEKKPMLIKRGQPGYFSDLLSYGEIDRVVSTMGLHVPEINVTRADGNITPADFAYETGQIDPVRVNQLHADGATVILSGLHERLPALARYCRAMEAAMSARVQTNIYMTPPGNQGFNPHYDGHDVLVLQVAGTKEWRIYGTPVELPLADQAFERGMDVGEEAQRFVLEPGDAVYIPRGMAHDAVATDETSLHITTGLMFRTWADALAEAVIAKAHREPSLRRALPPGFANNGVDLDDYKDTFAELIELVGDAHVGKLLSGFREEFLTARVPRVEGQMAQLAKLDGLTMDSRMGAHPHIVFGIHDVPNEDQVCLVAQGAEIILPAHARDAMEFCITTADFRLGDMEGDLDDAGKMVLAKRFVREGLMRVL,not soluble
15,MAHHHHHHMGTLEAQTQGPGSMVTAEAIDQRTFRRVLGQFCTGVTIITTVHEGNPVGFACQSFAALSLDPPLVLFCPTKVSRSWKAIEASGRFCVNILHEKQQHVSARFGSREPDKFAGIDWRPSDLGSPIIDGSLAHIDCTVHDVHDGGDHFVVFGKVHGLSEVPERKPRPLLFYRGEYTGIEPEKNTPAQWRDDLEAFLTATTADTWL,soluble
16,RENFPGVSWDSLPDELLLGIFSCLCLPELLKVSGVCKRWYRLASDESLWQTLDEFRVQHMDLSNSVIEVSTLHGILSQCSKLQNLSLEGLRLSDPIVNTLAKNSNLVRLNLSGCSGFSEFALQTLLSSCSRLDELNLSWCFDFTEKHVQVAVAHVSETITQLNLSGYRKNLQKSDLSTLVRRCPNLVHLDLSDSVMLKNDCFQEFFQLNYLQHLSLSRCYDIIPETLLELGEIPTLKTLQVFGIVPDGTLQLLKEALPHLQINCSHFTTIAR,soluble
17,MENKTVNQVIHYVYEGGGEAATDHNATVVFSQTITTDKVTGEKTYSDWTADNGDSFASVTSPVIDGYTADQLKVSEMTGITVDTEDISVTVTYTRNQGTIDVTYIDETTGKILEHHHHHH,not soluble
18,MDAELFPRSRAQVAPDAVHVPDWADAGRQRRFLAACRDWARPPAGLRTVHTPGGGTMTSRQVCLGWHWYPYGYARTVVDGDGAPVKPLPDWLAELGRDAVSDALGPQAVPPVPYDIALINFYGADARMGMHRDSDEKSGAPVVSLSVGDTCVFRFGNARTRTRPYTDVELRSGDLFVFGGASRLAYHGVPRVYADTAPPELGLVGRLNITLRVSGFQDPSGE,not soluble
19,MDLEEQKKAVIEKLIREGYIKSKRVIDALLKVPREEFLPEHLKEYAYVDTPLEIGYGQTISAIHMVGMMCELLDLKPGMKVLEIGTGCGYHAAVTAEIVGEDGLVVSIERIPELAEKAERTLRKLGYDNVIVIVGDGTLGYEPLAPYDRIYTTAAGPKIPEPLIRQLKDGGKLLMPVGRYLQRLVLAEKRGDEIIIKDCGPVAFVPLVGKEGFQG,soluble
20,GGSHMKSYEIALIGNPNVGKSTIFNALTGENVYIGNWPGVTVEKKEGEFEYNGEKFKVVDLPGVYSLTANSIDEIIARDYIINEKPDLVVNIVDATALERNLYLTLQLMEMGANLLLALNKMDLAKSLGIEIDVDKLEKILGVKVVPLSAAKKMGIEELKKAISIAVKDKKTAEIKYPNFEPYIKKIT,soluble
21,MSTTFAARLNRLFDTVYPPGRGPHTSAEVIAALKAEGITMSAPYLSQLRSGNRTNPSGATMAALANFFRIKAAYFTDDEYYEKLDKELQWLCTMRDDGVRRIAQRAHGLPSAAQQKVLDRIDELRRAEGIDA,soluble
